Assay results from patent US20250186597A1, “TARGETED IMMUNE ACTIVATION WITH IL-18 IMMUNOCYTOKINES” (BRIGHT PEAK THERAPEUTICS AG, priority 2023, published 2025).
Changes are numbered by the printed parent chain. Names and notes keep the numbering of the source.

T1: human IL-18BP (Homo sapiens, UniProt O95998)
T1 construct: His
T1 sequence (O95998 31-194): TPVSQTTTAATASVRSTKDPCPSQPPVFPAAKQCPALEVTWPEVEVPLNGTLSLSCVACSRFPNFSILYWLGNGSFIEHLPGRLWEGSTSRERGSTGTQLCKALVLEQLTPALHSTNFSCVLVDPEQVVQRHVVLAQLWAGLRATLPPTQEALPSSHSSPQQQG

B1: SEQ ID NO: 60: IL-18 polypeptide: E6K, C38Q, K53A (protein)
chain: YFGKLKSKLSVIRNLNDQVLFIDQGNRPLFEDMTDSDQRDNAPRTIFIISMYADSQPRGMAVTISVKCEKISTLSCENKIISFKEMNPPDNIKDTKSDIIFFQRSVPGHDNKMQFESSSYEGYFLACEKERDLFKLILKKEDELGDRSIMFTVQNED
B2: C166: IL-18 polypeptide: V11I, C38A, S55T, C76A, C127A (protein)
chain: B1 chain with K6E, V11I, Q38A, A53K, S55T, C76A, C127A
B3: C167: IL-18 polypeptide: V11I, C38A, C76A, S105I, C127A (protein)
chain: B1 chain with K6E, V11I, Q38A, A53K, C76A, S105I, C127A
B4: C168: IL-18 polypeptide: V11I, C38A, C76A, S105K, C127A (protein)
chain: B1 chain with K6E, V11I, Q38A, A53K, C76A, S105K, C127A
B5: 35 (protein)
chain: B1 chain with Y1G, F2A, Q38C, M51G, D54A, S55A, T63A
B6: 62 (protein)
chain: B1 chain with Q38A, C127A
B7: 60 (protein)
chain: B1 chain
B8: 59 (protein)
chain: B1 chain with Q38A

Experiments:
[1] = test system: NK92 cells; test: IFN gamma secretion assay in NK92 cells (Example 10); type: cell-based, human; conditions: IFNγ secretion, 1 ng/ml IL-12
Procedure: The IFNγ-secretion stimulating activity of the unconjugated IL-18 variants and corresponding IL-18 immunocytokines was evaluated on NK92 cell line. The NK cell line NK-92 derived from a patient with lymphoma (ATCC, Cat #CRL-2407) was cultured in aMEM medium supplemented with 12.5% FCS, 12.5% horse serum (HS), 50 uM B-mercaptoEthanol, and 2 ng/ml of recombinant Human Interleukin-2 (IL-2).
On the day of experiment, cells were harvested and washed with aMEM medium without IL-2 and resuspended in medium (w/o IL-2) containing 1 ng/ml of recombinant human Interleukin-12 (SinoBiologicals, Cat #CT011-H08H). After counting, cells were seeded at 100 000 cells/well in a 384 well titer plate and incubated at 37° C./5% CO2. Sixteen 4-fold serial dilutions of IL-18 analytes were prepared in aMEM medium—1 ng/ml IL-12 and were added to the NK-92 cells. […]
After 16-20 h incubation at 37° C./5% CO2, 5 μl of supernatant were carefully transferred to a 384 microwells OPTIPlate (Perkin Elmer; Cat #6007270) and Interferon-gamma (IFNγ) levels measured using the Human IFNγ AlphaLISA Assay Kit (Perkin Elmer, Cat #AL217C). […] AlphaLisa signal was then measured on an Enspire plate reader (Perkin Elmer) using 680 and 615 nm as excitation and emission wavelengths respectively. Half maximal effective concentration (EC50) was calculated based on a variable slope, four parameter analysis using GraphPad PRISM software.

[2] = target: T1, human IL-18BP; test: IL-18BP binding alphaLISA assay (Example 4, used in Example 22B); conditions: IL-18BP AlphaLISA
[3] = test system: NK-92 cells; test: IL-18 binding protein inhibition cellular assay in NK-92 cells (Example 4, used in Example 22C); type: cell-based, human; conditions: inhibition by IL-18BP of IFNg stimulation in NK92 cells
[4] = test system: NK-92 cells; test: IFNγ induction cellular assay in NK-92 cells (Example 4, used in Example 22C); type: cell-based, human; conditions: IFNg stimulation in NK92 cells

Molecule	EC50 [1]	Kd [2]	IC50 [3]	EC50 [4]
B1	0.008 nM	–	–	–
B2	–	0.02 nM	0.44 nM	0.098 nM
B3	–	0.04 nM	0.809 nM	0.103 nM
B4	–	0.05 nM	0.176 nM	0.098 nM
B5	–	969 nM	> 55 nM	> 55 nM
B6	–	69.6 nM	284 nM	0.026 nM
B7	–	24.8 nM	780 nM	0.006 nM
B8	–	36 nM	654 nM	0.015 nM
